Patent US20100266614A1 (AstraZeneca / MedImmune, published 2010)

Columns and labels:
[1] = target: T1, RSV F protein (C-terminal truncated F protein secreted from a recombinant baculovirus) (respiratory syncytial virus (RSV), UniProt P03420 26-524); experiment: ELISA titration of antibody on RSV F antigen, O.D. 560
T1 construct: also called F antigen; RSV F antigen

[2] = target: T1, RSV F protein (C-terminal truncated F …); experiment: ELISA titration of antibody on 500 ng RSV F antigen; qualitative score from titration curves
[3] = target: T1, RSV F protein (C-terminal truncated F …); experiment: SPR (BIAcore), F protein immobilized by EDC/NHS, Fab injected; kon and koff measured separately
[4] = target: T1, RSV F protein (C-terminal truncated F …); experiment: SPR (BIAcore), F protein immobilized by EDC/NHS, Fab injected; calculated from the rate constants
[5] = target: T1, RSV F protein (C-terminal truncated F …); experiment: SPR (BIAcore), from the kinetic constants of Table 4

T1 sequence (P03420 26-109, chain 1 of 2): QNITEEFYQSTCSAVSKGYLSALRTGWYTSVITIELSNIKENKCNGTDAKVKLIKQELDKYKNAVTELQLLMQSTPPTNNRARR
T1 sequence (P03420 137-524, chain 2 of 2): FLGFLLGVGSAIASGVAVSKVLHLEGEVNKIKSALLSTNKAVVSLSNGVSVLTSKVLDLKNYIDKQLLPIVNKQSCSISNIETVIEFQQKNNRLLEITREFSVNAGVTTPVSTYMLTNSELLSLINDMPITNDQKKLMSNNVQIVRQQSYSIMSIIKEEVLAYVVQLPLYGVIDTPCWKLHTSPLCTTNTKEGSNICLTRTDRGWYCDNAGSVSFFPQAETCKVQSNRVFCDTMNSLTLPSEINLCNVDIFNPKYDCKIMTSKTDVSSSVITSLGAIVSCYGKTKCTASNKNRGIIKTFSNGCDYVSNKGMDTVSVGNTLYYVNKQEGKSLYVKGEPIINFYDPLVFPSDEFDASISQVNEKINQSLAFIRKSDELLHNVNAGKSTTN

B1: 16 (antibody, V domains shown)
VH: QVTLRESGPALVKPTQTLTLTCTFSGFSLSTAGMSVGWIRQPPGKALEWLADIWWDDKKDYNPSLKSRLTISKDTSKNQVVLKVTNMDPADTATYYCARSMITNWYFDVWGQGTTVTVSS
VL: DIQMTQSPSTLSASVGDRVTITCSASSSVGYMHWYQQKPGKAPKLLIYDTSKLASGVPSRFSGSGSGTEFTLTISSLQPDDFATYYCFQGSGYPFTFGGGTKVEIK
notes: also called AWSG
- EC50 (read off the curve) [1]: ~0.03 µg/mL

B2: IX-493 (SWSG), basic or reference antibody (Fab, V domains shown)
VH: QVTLRESGPALVKPTQTLTLTCTFSGFSLSTSGMSVGWIRQPPGKALEWLADIWWDDKKDYNPSLKSRLTISKDTSKNQVVLKVTNMDPADTATYYCARSMITNWYFDVWGQGTTVTVSS
VL: DIQMTQSPSTLSASVGDRVTITCSASSSVGYMHWYQQKPGKAPKLLIYDTSKLASGVPSRFSGSGSGTEFTLTISSLQPDDFATYYCFQGSGYPFTFGGGTKVEIK
notes: also called basic antibody
- Ag Score [2]: 0.1 arbitrary score 0-4
- EC50 (read off the curve) [1]: ~0.2 µg/mL

B3: clone 4 (PFFY) (antibody, V domains shown)
VH: QVTLRESGPALVKPTQTLTLTCTFSGFSLSTPGMSVGWIRQPPGKALEWLADIWWDDKKDYNPSLKSRLTISKDTSKNQVVLKVTNMDPADTATYYCARSMITNFYFDVWGQGTTVTVSS
VL: DIQMTQSPSTLSASVGDRVTITCSASSSVGYMHWYQQKPGKAPKLLIYDTFKLASGVPSRFSGSGSGTEFTLTISSLQPDDFATYYCFQGSYYPFTFGGGTKVEIK
notes: also called 4 (n = 3)
- Ag Score [2]: 3.5 arbitrary score 0-4
- EC50 (read off the curve) [1]: ~0.01 µg/mL

B4: clone 5 (PFFW) (antibody, V domains shown)
VH: QVTLRESGPALVKPTQTLTLTCTFSGFSLSTPGMSVGWIRQPPGKALEWLADIWWDDKKDYNPSLKSRLTISKDTSKNQVVLKVTNMDPADTATYYCARSMITNFYFDVWGQGTTVTVSS
VL: DIQMTQSPSTLSASVGDRVTITCSASSSVGYMHWYQQKPGKAPKLLIYDTFKLASGVPSRFSGSGSGTEFTLTISSLQPDDFATYYCFQGSWYPFTFGGGTKVEIK
notes: also called 5 (n = 3)
- Ag Score [2]: 3.5 arbitrary score 0-4

B5: clone 6 (PFYF) (antibody, V domains shown)
VH: QVTLRESGPALVKPTQTLTLTCTFSGFSLSTPGMSVGWIRQPPGKALEWLADIWWDDKKDYNPSLKSRLTISKDTSKNQVVLKVTNMDPADTATYYCARSMITNFYFDVWGQGTTVTVSS
VL: DIQMTQSPSTLSASVGDRVTITCSASSSVGYMHWYQQKPGKAPKLLIYDTYKLASGVPSRFSGSGSGTEFTLTISSLQPDDFATYYCFQGSFYPFTFGGGTKVEIK
- Ag Score [2]: 3.5 arbitrary score 0-4
- EC50 (read off the curve) [1]: ~0.02 µg/mL

B6: clone 7 (PFFG) (antibody, V domains shown)
VH: QVTLRESGPALVKPTQTLTLTCTFSGFSLSTPGMSVGWIRQPPGKALEWLADIWWDDKKDYNPSLKSRLTISKDTSKNQVVLKVTNMDPADTATYYCARSMITNFYFDVWGQGTTVTVSS
VL: DIQMTQSPSTLSASVGDRVTITCSASSSVGYMHWYQQKPGKAPKLLIYDTFKLASGVPSRFSGSGSGTEFTLTISSLQPDDFATYYCFQGSGYPFTFGGGTKVEIK
notes: also called 7 (n = 4)
- Ag Score [2]: 3 arbitrary score 0-4

B7: clone 9 (PFSW) (antibody, V domains shown)
VH: QVTLRESGPALVKPTQTLTLTCTFSGFSLSTPGMSVGWIRQPPGKALEWLADIWWDDKKDYNPSLKSRLTISKDTSKNQVVLKVTNMDPADTATYYCARSMITNFYFDVWGQGTTVTVSS
VL: DIQMTQSPSTLSASVGDRVTITCSASSSVGYMHWYQQKPGKAPKLLIYDTSKLASGVPSRFSGSGSGTEFTLTISSLQPDDFATYYCFQGSWYPFTFGGGTKVEIK
notes: also called 9 (n = 2)
- Ag Score [2]: 3 arbitrary score 0-4

B8: clone 10 (PFSF) (antibody, V domains shown)
VH: QVTLRESGPALVKPTQTLTLTCTFSGFSLSTPGMSVGWIRQPPGKALEWLADIWWDDKKDYNPSLKSRLTISKDTSKNQVVLKVTNMDPADTATYYCARSMITNFYFDVWGQGTTVTVSS
VL: DIQMTQSPSTLSASVGDRVTITCSASSSVGYMHWYQQKPGKAPKLLIYDTSKLASGVPSRFSGSGSGTEFTLTISSLQPDDFATYYCFQGSFYPFTFGGGTKVEIK
- Ag Score [2]: 3 arbitrary score 0-4

B9: clone 11 (PWFW) (antibody, V domains shown)
VH: QVTLRESGPALVKPTQTLTLTCTFSGFSLSTPGMSVGWIRQPPGKALEWLADIWWDDKKDYNPSLKSRLTISKDTSKNQVVLKVTNMDPADTATYYCARSMITNWYFDVWGQGTTVTVSS
VL: DIQMTQSPSTLSASVGDRVTITCSASSSVGYMHWYQQKPGKAPKLLIYDTFKLASGVPSRFSGSGSGTEFTLTISSLQPDDFATYYCFQGSWYPFTFGGGTKVEIK
- Ag Score [2]: 3 arbitrary score 0-4

B10: clone 12 (PWFF) (antibody, V domains shown)
VH: QVTLRESGPALVKPTQTLTLTCTFSGFSLSTPGMSVGWIRQPPGKALEWLADIWWDDKKDYNPSLKSRLTISKDTSKNQVVLKVTNMDPADTATYYCARSMITNWYFDVWGQGTTVTVSS
VL: DIQMTQSPSTLSASVGDRVTITCSASSSVGYMHWYQQKPGKAPKLLIYDTFKLASGVPSRFSGSGSGTEFTLTISSLQPDDFATYYCFQGSFYPFTFGGGTKVEIK
notes: also called 12 (n = 2)
- Ag Score [2]: 2.5 arbitrary score 0-4

B11: clone 13 (SFFF) (antibody, V domains shown)
VH: QVTLRESGPALVKPTQTLTLTCTFSGFSLSTSGMSVGWIRQPPGKALEWLADIWWDDKKDYNPSLKSRLTISKDTSKNQVVLKVTNMDPADTATYYCARSMITNFYFDVWGQGTTVTVSS
VL: DIQMTQSPSTLSASVGDRVTITCSASSSVGYMHWYQQKPGKAPKLLIYDTFKLASGVPSRFSGSGSGTEFTLTISSLQPDDFATYYCFQGSFYPFTFGGGTKVEIK
notes: also called 13 (n = 3)
- Ag Score [2]: 2.5 arbitrary score 0-4

B12: clone 14 (SFFW) (antibody, V domains shown)
VH: QVTLRESGPALVKPTQTLTLTCTFSGFSLSTSGMSVGWIRQPPGKALEWLADIWWDDKKDYNPSLKSRLTISKDTSKNQVVLKVTNMDPADTATYYCARSMITNFYFDVWGQGTTVTVSS
VL: DIQMTQSPSTLSASVGDRVTITCSASSSVGYMHWYQQKPGKAPKLLIYDTFKLASGVPSRFSGSGSGTEFTLTISSLQPDDFATYYCFQGSWYPFTFGGGTKVEIK
- Ag Score [2]: 2.5 arbitrary score 0-4

B13: clone 15 (AFSG) (antibody, V domains shown)
VH: QVTLRESGPALVKPTQTLTLTCTFSGFSLSTAGMSVGWIRQPPGKALEWLADIWWDDKKDYNPSLKSRLTISKDTSKNQVVLKVTNMDPADTATYYCARSMITNFYFDVWGQGTTVTVSS
VL: DIQMTQSPSTLSASVGDRVTITCSASSSVGYMHWYQQKPGKAPKLLIYDTSKLASGVPSRFSGSGSGTEFTLTISSLQPDDFATYYCFQGSGYPFTFGGGTKVEIK
notes: also called 15 (n = 2)
- Ag Score [2]: 2.5 arbitrary score 0-4

B14: clone 16 (PFSG) (antibody, V domains shown)
VH: QVTLRESGPALVKPTQTLTLTCTFSGFSLSTPGMSVGWIRQPPGKALEWLADIWWDDKKDYNPSLKSRLTISKDTSKNQVVLKVTNMDPADTATYYCARSMITNFYFDVWGQGTTVTVSS
VL: DIQMTQSPSTLSASVGDRVTITCSASSSVGYMHWYQQKPGKAPKLLIYDTSKLASGVPSRFSGSGSGTEFTLTISSLQPDDFATYYCFQGSGYPFTFGGGTKVEIK
notes: also called 16 (n = 2)
- Ag Score [2]: 2 arbitrary score 0-4

B15: clone 17 (PWSW) (antibody, V domains shown)
VH: QVTLRESGPALVKPTQTLTLTCTFSGFSLSTPGMSVGWIRQPPGKALEWLADIWWDDKKDYNPSLKSRLTISKDTSKNQVVLKVTNMDPADTATYYCARSMITNWYFDVWGQGTTVTVSS
VL: DIQMTQSPSTLSASVGDRVTITCSASSSVGYMHWYQQKPGKAPKLLIYDTSKLASGVPSRFSGSGSGTEFTLTISSLQPDDFATYYCFQGSWYPFTFGGGTKVEIK
- Ag Score [2]: 2 arbitrary score 0-4
- EC50 (read off the curve) [1]: ~0.04 µg/mL

B16: clone 18 (SFFG) (antibody, V domains shown)
VH: QVTLRESGPALVKPTQTLTLTCTFSGFSLSTSGMSVGWIRQPPGKALEWLADIWWDDKKDYNPSLKSRLTISKDTSKNQVVLKVTNMDPADTATYYCARSMITNFYFDVWGQGTTVTVSS
VL: DIQMTQSPSTLSASVGDRVTITCSASSSVGYMHWYQQKPGKAPKLLIYDTFKLASGVPSRFSGSGSGTEFTLTISSLQPDDFATYYCFQGSGYPFTFGGGTKVEIK
notes: also called 18 (n = 2)
- Ag Score [2]: 2 arbitrary score 0-4

B17: clone 19 (SFSW) (antibody, V domains shown)
VH: QVTLRESGPALVKPTQTLTLTCTFSGFSLSTSGMSVGWIRQPPGKALEWLADIWWDDKKDYNPSLKSRLTISKDTSKNQVVLKVTNMDPADTATYYCARSMITNFYFDVWGQGTTVTVSS
VL: DIQMTQSPSTLSASVGDRVTITCSASSSVGYMHWYQQKPGKAPKLLIYDTSKLASGVPSRFSGSGSGTEFTLTISSLQPDDFATYYCFQGSWYPFTFGGGTKVEIK
- Ag Score [2]: 2 arbitrary score 0-4

B18: clone 20 (SFSF) (antibody, V domains shown)
VH: QVTLRESGPALVKPTQTLTLTCTFSGFSLSTSGMSVGWIRQPPGKALEWLADIWWDDKKDYNPSLKSRLTISKDTSKNQVVLKVTNMDPADTATYYCARSMITNFYFDVWGQGTTVTVSS
VL: DIQMTQSPSTLSASVGDRVTITCSASSSVGYMHWYQQKPGKAPKLLIYDTSKLASGVPSRFSGSGSGTEFTLTISSLQPDDFATYYCFQGSFYPFTFGGGTKVEIK
- Ag Score [2]: 2 arbitrary score 0-4

B19: clone 21 (SWYF) (antibody, V domains shown)
VH: QVTLRESGPALVKPTQTLTLTCTFSGFSLSTSGMSVGWIRQPPGKALEWLADIWWDDKKDYNPSLKSRLTISKDTSKNQVVLKVTNMDPADTATYYCARSMITNWYFDVWGQGTTVTVSS
VL: DIQMTQSPSTLSASVGDRVTITCSASSSVGYMHWYQQKPGKAPKLLIYDTYKLASGVPSRFSGSGSGTEFTLTISSLQPDDFATYYCFQGSFYPFTFGGGTKVEIK
- Ag Score [2]: 2 arbitrary score 0-4

B20: clone 22 (AFFF) (Fab, V domains shown)
VH: QVTLRESGPALVKPTQTLTLTCTFSGFSLSTAGMSVGWIRQPPGKALEWLADIWWDDKKDYNPSLKSRLTISKDTSKNQVVLKVTNMDPADTATYYCARSMITNFYFDVWGQGTTVTVSS
VL: DIQMTQSPSTLSASVGDRVTITCSASSSVGYMHWYQQKPGKAPKLLIYDTFKLASGVPSRFSGSGSGTEFTLTISSLQPDDFATYYCFQGSFYPFTFGGGTKVEIK
notes: also called 4D2-7
- koff [3]: 3.7e-07 s⁻¹
- kon [3]: 134000 M⁻¹ s⁻¹
- Ka [4]: 3.62e+11 M⁻¹
- Kd [5]: ~2.8 pM
